Measurements: article PMC10397247

Experiments:
[1] = target: T1, 4H3427-AA; test: two-hybrid library CCmax;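 note: natural log of median RNA to DNA barcode read ratio; higher means stronger binding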
T1 chain: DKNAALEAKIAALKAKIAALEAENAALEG

[2] = target: T2, 4H3606-AA; test: two-hybrid library CCmax; settings: mean of both orientations;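 note: natural log of median RNA to DNA barcode read ratio; higher means stronger binding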
T2 chain: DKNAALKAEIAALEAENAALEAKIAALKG

[3] = target: T3, 4H3627-AA; test: two-hybrid library CCmax; settings: mean of both orientations;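 note: natural log of median RNA to DNA barcode read ratio; higher means stronger binding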
T3 chain: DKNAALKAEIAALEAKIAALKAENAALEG

[4] = target: T4, 4H3655-AA; test: two-hybrid library CCmax; settings: mean of both orientations;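 note: natural log of median RNA to DNA barcode read ratio; higher means stronger binding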
T4 chain: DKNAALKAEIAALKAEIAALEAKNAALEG

[5] = target: T5, 4H3782-AA; test: two-hybrid library CCmax; settings: mean of both orientations;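 note: natural log of median RNA to DNA barcode read ratio; higher means stronger binding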
T5 chain: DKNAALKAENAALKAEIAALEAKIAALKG

[6] = target: T6, 4H3844-AA; test: two-hybrid library CCmax; settings: mean of both orientations;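 note: natural log of median RNA to DNA barcode read ratio; higher means stronger binding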
T6 chain: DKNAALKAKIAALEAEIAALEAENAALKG

[7] = target: T7, 4H3855-AA; test: two-hybrid library CCmax; settings: mean of both orientations
T7 chain: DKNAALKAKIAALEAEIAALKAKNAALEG

[8] = target: T8, 4H3921-AA; test: two-hybrid library CCmax; settings: mean of both orientations
T8 chain: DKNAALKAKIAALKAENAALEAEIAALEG

[9] = target: T9, 4H4001-AA; test: two-hybrid library CCmax; settings: mean of both orientations
T9 chain: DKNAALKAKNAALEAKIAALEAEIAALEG

[10] = target: T10, 4H429-AA; test: two-hybrid library CCmax; settings: mean of both orientations
T10 chain: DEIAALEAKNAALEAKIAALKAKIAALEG

[11] = target: T11, 4H454-AA; test: two-hybrid library CCmax; settings: mean of both orientations
T11 chain: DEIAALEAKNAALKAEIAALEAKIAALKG

[12] = target: T12, 4H48-AA; test: two-hybrid library CCmax; settings: mean of both orientations
T12 chain: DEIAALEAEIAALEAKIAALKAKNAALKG

[13] = target: T13, 4H566-AA; test: two-hybrid library CCmax; settings: mean of both orientations
T13 chain: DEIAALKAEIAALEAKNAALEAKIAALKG

[14] = target: T14, 4H568-AA; test: two-hybrid library CCmax; settings: mean of both orientations
T14 chain: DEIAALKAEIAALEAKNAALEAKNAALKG

[15] = target: T15, 4H605-AA; test: two-hybrid library CCmax; settings: mean of both orientations
T15 chain: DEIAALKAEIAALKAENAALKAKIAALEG

[16] = target: T16, 4H678-AA; test: two-hybrid library CCmax; settings: mean of both orientations
T16 chain: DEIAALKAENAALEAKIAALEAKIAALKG

[17] = target: T17, 4H687-AA; test: two-hybrid library CCmax; settings: mean of both orientations
T17 chain: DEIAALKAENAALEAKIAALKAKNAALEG

[18] = target: T18, 4H717-AA; test: two-hybrid library CCmax; settings: mean of both orientations
T18 chain: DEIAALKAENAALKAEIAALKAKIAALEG

[19] = target: T19, 4H780-AA; test: two-hybrid library CCmax; settings: mean of both orientations
T19 chain: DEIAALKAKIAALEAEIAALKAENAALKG

[20] = target: T20, 4H794-AA; test: two-hybrid library CCmax; settings: mean of both orientations
T20 chain: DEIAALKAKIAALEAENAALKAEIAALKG

[21] = target: T21, 4H797-AA; test: two-hybrid library CCmax; settings: mean of both orientations
T21 chain: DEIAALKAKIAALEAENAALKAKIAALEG

[22] = target: T22, 4H881-AA; test: two-hybrid library CCmax; settings: mean of both orientations
T22 chain: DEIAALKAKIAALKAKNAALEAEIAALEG

[23] = target: T23, 4H883-AA; test: two-hybrid library CCmax; settings: mean of both orientations
T23 chain: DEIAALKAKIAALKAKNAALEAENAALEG

[24] = target: T24, 4H906-AA; test: two-hybrid library CCmax; settings: mean of both orientations
T24 chain: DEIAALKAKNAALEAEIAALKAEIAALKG

[25] = target: T25, 4H918-AA; test: two-hybrid library CCmax
T25 chain: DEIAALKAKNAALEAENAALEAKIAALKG

[26] = target: T26, 4H953-AA; test: two-hybrid library CCmax; settings: mean of both orientations
T26 chain: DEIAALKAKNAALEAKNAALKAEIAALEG

[27] = target: T27, 4H967-AA; test: two-hybrid library CCmax; settings: mean of both orientations
T27 chain: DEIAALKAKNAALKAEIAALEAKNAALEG

[28] = target: T28, 4H993-AA; test: two-hybrid library CCmax; settings: mean of both orientations
T28 chain: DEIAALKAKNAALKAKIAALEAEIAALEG

[29] = target: T29, P6SHb; test: two-hybrid library CCNG1
T29 chain: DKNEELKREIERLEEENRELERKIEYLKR

[30] = target: T30, P7SHb; test: two-hybrid library CCNG1
T30 chain: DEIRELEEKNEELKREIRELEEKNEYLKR

[31] = target: T31, P8SHb; test: two-hybrid library CCNG1
T31 chain: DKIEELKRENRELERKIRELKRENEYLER

[32] = target: T32, P9SHb; test: two-hybrid library CCNG1
T32 chain: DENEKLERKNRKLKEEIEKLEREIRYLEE

Binder: DKNAALEAKIAALKAKIAALEAENAALEG [4H3427-AA]
- interaction score [1]: -0.802
- interaction score [2]: -0.74
- interaction score [3]: -0.773
- interaction score [4]: 0.589
- interaction score [5]: -0.991
- interaction score [6]: 0.482
- interaction score [7]: -1.01
- interaction score [8]: -1.79
- interaction score [9]: -1.06
- interaction score [10]: -1.37
- interaction score [11]: -0.567
- interaction score [12]: 1.18
- interaction score [13]: -1.35
- interaction score [14]: -0.257
- interaction score [15]: -1.66
- interaction score [16]: -1.47
- interaction score [17]: -1.62
- interaction score [18]: -1.29
- interaction score [19]: -1.61
- interaction score [20]: -1.26
- interaction score [21]: -1.46
- interaction score [22]: -1.68
- interaction score [23]: -1.7
- interaction score [24]: -1.69
- interaction score [25]: -1.2
- interaction score [26]: -1.66
- interaction score [27]: -1.59
- interaction score [28]: -1.24

Binder: DKNEELKREIERLEEENRELERKIEYLKR [P6SHb]
- interaction score [29]: 0.147
- interaction score [30]: 0.946
- interaction score [31]: 0.342
- interaction score [32]: 0.769
